In the RNAGym collection of RNA variant scans (doi:10.1073/pnas.2313332121):

B1: TPR t1 (parent)
chain: GACCAAUCUGCCCUCAGAGCUCGAGAACAUCUUCGGAUGCAGAGGAGGCAGGCUUCGGUGGCGCGAUAGCGCCAACGUCCUCAACCUCCAAUGCAUCCCACCACAUGAUGAUGCCUGAAGAGCCUUGGUUUUUUG

Variants of: B1
Test: polymerase ribozyme fitness, log enrichment relative to wild type (log ratio); higher = more active; in vitro selection for triplet polymerase activity
Method in brief: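 For each subunit of a heterodimeric triplet polymerase ribozyme, a mutant library was built by PCR and transcribed, then taken through a single in vitro selection round in triplicate. Selection involved annealing to a biotinylated primer, the partner subunit and triplets, incubation frozen at −7 °C, gel excision of extended constructs, capture on streptavidin beads and RT-PCR. Genotypes were retained after Illumina sequencing of inputs and outputs only with ≥10 input reads and ≥1 read in each output. Fitness is defined as the logarithm of a genotype's enrichment relative to wild-type enrichment, using inverse-variance-weighted averages across replicates, with the logarithm taken to base 2.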

Variant	polymerase ribozyme fitness (log ratio)
U54G U59C	-1.85
C73A C101U	0.2
C70A U78C	-1.85
C12U G19C A46U U112A	-0.273
G10A U21G G44C C80U C123G	-2.04
A37U C53G G63C U116A	-2.98
A2C C86U	-1.99
C8G A29C G48A C70U	-2.95
G51C G113C	-5.71
C15U U38A G60U A83G	-2.98
G47A C82U C86G	-0.151
C8G C53G A66U G120U	1.03
C20U G42U U55G G69C U87C	-4.35
G52U U55G C82A C89G	-3.64
A43U A46U	-2.27
G19U C40U G47U G61A U106A C123U	-6.98
C12A C123U G128C	0.474
A5U G57A G63U C89G U112C U126A	-3.35
G52A C123A	-0.148
G45A U96G	-1.51
U54A C94U U109G	-5

Variant	polymerase ribozyme fitness (log ratio)
C12U A84C	0.463
A105U U125A	-2.77
C20U C70A	-3.13
A29G G45U C73U U78G U87G	-2.9
A18U C73A	-3.04
C20U A90U C123U	-1.5
G45A C104U	-0.463
C11G U32A G48U C64A C73U U96A C123A	-7.31
C4U A43U G63C G93A	-3.29
U9C G69U C72G	-1.2
C8A C82A A90C	-1.03
C20G C115U A121C	-6.48
G71U A105U	-2.22
A6G A90U	-0.939
A84G G120A U130G	-0.15
C62U U78G	-0.0458
G19U C53G U54A G61A	-2.73
C31G G61U	-6.02
U9C C56A A83C	0.00737
C15G A27G A95G G110U	-5.6
A18U U112A	-1.42

Variant	polymerase ribozyme fitness (log ratio)
A5G G44A G71U A83C C86U	-1.87
C72U A103U	-5.16
U55G C104A	-1.59
C20U C34G	-6.47
C3A G127U	-0.622
G10A U30A U54A	-5.83
C56U U106C G120A	0.203
A6U C11U	0.0672
U54G U87C U92G	-2.64
G19U G61A C62U C124A U131C	-4.46
G17C U21G G60C C79U G117A C124G	-5.63
C101A A105G	-3.13
C49G G52A C70A U96C	-4.29
C13U C85A A91C C104A G120C	-3.62
G69C C82U U126G	-3.1
G45U C88A U130G	-0.102
C114U G117C U133A	-5.74
G17U A83U C123G	-1.3
A27U U30C C76A C99G C102A A105U C115U	-6.7
G69U A95U G122A	-0.876
G10A A41C C56U U78G C82U	-1.79

Variant	polymerase ribozyme fitness (log ratio)
C13G C62U G120U	-0.935
U112A U126C	0.739
U54G G69C	-6.2
C20U C53U G113C	-1.84
C12G G51U	-2.93
A16U C72U	-1.94
C12U C34U	-3.06
C13A C53G C70U	-2.31
C31G C70A	-7.42
G61U U78A	0.0643
C11G C28G C56G C85G	-6.05
C12A G107A	-5.12
A29U C49A C64U C82A C97G A121G U133C	-3.41
A6G U7C	-0.442
G52A C104U G110C	-2.99
C3G C8G A43U C72U A90C	-2.6
A43U C73G C85U C98G C115U	-7.11
A29G C40U G63A C104U G122A	-2.07
A46U C101U U132C	-1.92
A2U U9G A50G C62U C98A G120C	-5.94
